B1: Twister Ribozyme (parent)
chain: AACACUGCCAAUGCCGGUCCCAAGCCCGGAUAAAAGUGGAGGGGGCGG

Variants of: B1
Experiment: self-cleavage, relative activity (ratio to wild type); higher = more cleavage; co-transcriptional
For G16U G42C, the self-cleavage was 0.25.
With G16A U37C the self-cleavage was 0.335.
G16A U37A gave a self-cleavage of 0.457.
For C15G G45A, the self-cleavage was 0.113.
With C15G G45U the self-cleavage was 0.133.
Work on C15G G45C yielded a self-cleavage of 0.0924.
For C15G U31A, the self-cleavage was 0.186.
Work on G17A C27A yielded a self-cleavage of 0.221.
With G16C A22U the self-cleavage was 0.21.
With G16U C26G the self-cleavage was 0.136.
In the case of G16U C26U, the self-cleavage is reported as 0.15.
Variant G16U C26A has a self-cleavage of 0.45.
C15U A32U showed a self-cleavage of 0.958.
For G17C G48A, the self-cleavage was 0.133.
Variant G17C G48U has a self-cleavage of 0.163.
For G16A G38A, the self-cleavage was 0.867.
For G16A G38C, the self-cleavage was 0.761.
Work on G17C yielded a self-cleavage of 0.153.
G17A gave a self-cleavage of 0.783.
Variant G17A A35C has a self-cleavage of 0.637.
Variant G17A A35G has a self-cleavage of 0.262.
G17A G43A gave a self-cleavage of 0.156.
For G16A G41A, the self-cleavage was 0.364.
For C15U C25U, the self-cleavage was 0.914.
With C15U C25A the self-cleavage was 0.178.
Variant G16C C27G has a self-cleavage of 0.608.
With G16C C27A the self-cleavage was 0.684.
Work on C15U A23G yielded a self-cleavage of 0.297.
Variant C15U A23C has a self-cleavage of 0.134.
In the case of G17C G39U, the self-cleavage is reported as 0.0818.
G17C G39C gave a self-cleavage of 0.0888.
C15G G43U showed a self-cleavage of 0.104.
With C15G G43C the self-cleavage was 0.0538.
Work on G16U C25U yielded a self-cleavage of 0.809.
For G17C G45U, the self-cleavage was 0.107.
For G17C G45C, the self-cleavage was 0.0995.
G16C A34U showed a self-cleavage of 0.207.
C15G G47A gave a self-cleavage of 0.0633.
C15G G47U showed a self-cleavage of 0.0543.
Work on C15G G47C yielded a self-cleavage of 0.0669.
In the case of G17A G38A, the self-cleavage is reported as 0.498.
In the case of G17C C25G, the self-cleavage is reported as 0.0833.
G17A C19A gave a self-cleavage of 0.104.
G17A C19G gave a self-cleavage of 0.14.
For G17A C19U, the self-cleavage was 0.281.
In the case of G17C G43A, the self-cleavage is reported as 0.0872.
In the case of G17C G43U, the self-cleavage is reported as 0.0878.
Variant G17A U37A has a self-cleavage of 0.207.
With G17C A30U the self-cleavage was 0.143.
In the case of G17C A30C, the self-cleavage is reported as 0.101.
G17C A30G showed a self-cleavage of 0.0984.
For G16U A23G, the self-cleavage was 0.0652.
G16U A23C showed a self-cleavage of 0.115.
In the case of C15U C20A, the self-cleavage is reported as 0.176.
Variant C15U C20G has a self-cleavage of 0.135.
G16U A33G showed a self-cleavage of 0.597.
With G16U A33U the self-cleavage was 0.88.
In the case of G16U A33C, the self-cleavage is reported as 0.66.
Variant G16U U18C has a self-cleavage of 0.351.
Work on G17C A34C yielded a self-cleavage of 0.0523.
Work on G16C C25U yielded a self-cleavage of 0.188.
Variant G16C C25G has a self-cleavage of 0.0947.
C15U U18G gave a self-cleavage of 0.0578.
Variant C15U U18C has a self-cleavage of 0.396.
C15U C19A gave a self-cleavage of 0.228.
With G17C U31G the self-cleavage was 0.139.
G17C U31C gave a self-cleavage of 0.115.
With G16A A23U the self-cleavage was 0.228.
Variant G16U A30G has a self-cleavage of 0.761.
G16A G29C showed a self-cleavage of 0.339.
With G16A G29U the self-cleavage was 0.663.
With G16C A30C the self-cleavage was 0.363.
With C15U the self-cleavage was 0.975.
G16A A32U showed a self-cleavage of 0.919.
In the case of G16A A32G, the self-cleavage is reported as 0.888.
In the case of G16U U37G, the self-cleavage is reported as 0.409.
In the case of G16U U37A, the self-cleavage is reported as 0.436.
G17A G29C showed a self-cleavage of 0.222.
G17A G29A showed a self-cleavage of 0.308.
G17A G29U showed a self-cleavage of 0.336.
C15U C27G showed a self-cleavage of 0.0731.
With C15U C27A the self-cleavage was 0.105.
In the case of G17C A40G, the self-cleavage is reported as 0.0717.
G17A G28A gave a self-cleavage of 0.296.
Variant G17A G28C has a self-cleavage of 0.393.
G16U G41C showed a self-cleavage of 0.212.
For G16U G41U, the self-cleavage was 0.35.
Variant G17C C46G has a self-cleavage of 0.139.
For G17C C46U, the self-cleavage was 0.144.
In the case of G16C U18G, the self-cleavage is reported as 0.116.
With G17C A33C the self-cleavage was 0.0741.
Work on G16U G38A yielded a self-cleavage of 0.935.
Work on G16U G38C yielded a self-cleavage of 1.02.
G16A G28U gave a self-cleavage of 0.607.
In the case of C15U G44A, the self-cleavage is reported as 0.935.
For G16C A40C, the self-cleavage was 0.0741.
Work on G16C A40U yielded a self-cleavage of 0.114.
For G16A A40C, the self-cleavage was 0.122.
Work on G17C G47U yielded a self-cleavage of 0.0863.
For G16A G39U, the self-cleavage was 0.187.
Work on C15U G36C yielded a self-cleavage of 0.204.
Work on G16C G47A yielded a self-cleavage of 0.165.
G16C G47C gave a self-cleavage of 0.268.
For G16C G47U, the self-cleavage was 0.602.
Variant G17A C20A has a self-cleavage of 0.0884.
With G17A C20G the self-cleavage was 0.0402.
Variant G16C C21A has a self-cleavage of 0.0849.
For G17C C27A, the self-cleavage was 0.0647.
Variant C15U G47A has a self-cleavage of 0.84.
With C15U G47U the self-cleavage was 0.8.
In the case of G17C A32C, the self-cleavage is reported as 0.0792.
With G17C A32G the self-cleavage was 0.129.
G17A C21A showed a self-cleavage of 0.101.
In the case of G17A C21U, the self-cleavage is reported as 0.0984.
G17A G44U showed a self-cleavage of 0.704.
G16A G47C showed a self-cleavage of 0.351.
In the case of G16A G47A, the self-cleavage is reported as 0.702.
With C15U U31A the self-cleavage was 0.785.
C15G G24U gave a self-cleavage of 0.0758.
With C15G G24A the self-cleavage was 0.0815.
Work on C15G G24C yielded a self-cleavage of 0.0723.
G16C C46U gave a self-cleavage of 0.78.
In the case of G16U A34G, the self-cleavage is reported as 0.396.
Variant G16U A34U has a self-cleavage of 0.577.
G16U A34C showed a self-cleavage of 0.111.
With G16U G48C the self-cleavage was 1.06.
G16U G48U showed a self-cleavage of 0.843.
Work on G16U G48A yielded a self-cleavage of 0.898.
Work on G16C A23G yielded a self-cleavage of 0.092.
In the case of G16C A23U, the self-cleavage is reported as 0.0704.
G16U U31C showed a self-cleavage of 0.725.
G16U U31A showed a self-cleavage of 1.05.
With G16C G43U the self-cleavage was 0.11.
In the case of G16C G43C, the self-cleavage is reported as 0.161.
Variant G16U G28U has a self-cleavage of 1.07.
Variant G17A G42U has a self-cleavage of 0.135.
With G17A G42C the self-cleavage was 0.192.
With G16C G24U the self-cleavage was 0.0773.
Variant G17C G41C has a self-cleavage of 0.104.
In the case of G17C G41U, the self-cleavage is reported as 0.0841.
With G17C G41A the self-cleavage was 0.0738.
For G16U G29U, the self-cleavage was 0.87.
With G16U G47C the self-cleavage was 0.426.
G16C G44U showed a self-cleavage of 0.81.
In the case of G16C G44A, the self-cleavage is reported as 0.803.
G16C G44C showed a self-cleavage of 0.649.
For C15G G41C, the self-cleavage was 0.0823.
In the case of G16C C26U, the self-cleavage is reported as 0.171.
G16C C26G showed a self-cleavage of 0.0968.
For G16A C26A, the self-cleavage was 0.437.
Work on G16A C26U yielded a self-cleavage of 0.107.
For G16A G17A, the self-cleavage was 0.281.
G16A G17C gave a self-cleavage of 0.139.
For C15U G28C, the self-cleavage was 0.988.
With G17C A35C the self-cleavage was 0.0982.
With G17C A35G the self-cleavage was 0.0629.
Variant G17A G24C has a self-cleavage of 0.128.
Work on G17A G24U yielded a self-cleavage of 0.0891.
Work on C15U G39U yielded a self-cleavage of 0.27.
For G17C C21U, the self-cleavage was 0.0868.
Work on G17C C21G yielded a self-cleavage of 0.0972.
Work on C15U A35C yielded a self-cleavage of 0.863.
In the case of C15G G42C, the self-cleavage is reported as 0.0975.
C15G G29A gave a self-cleavage of 0.104.
In the case of C15G G29C, the self-cleavage is reported as 0.0981.
For C15U G38A, the self-cleavage was 0.831.
Variant C15U G38U has a self-cleavage of 0.76.
